These results are taken from patent US20240043521A1 (ARXX THERAPEUTICS, published 2024).

One experiment deals with T1, human S100A4 dimer (Homo sapiens, UniProt P26447 1-101).
T1 construct: In the SPR it was captured on an anti-His surface, so it carried a His tag; also called recombinant human S100A4 dimer
Put plainly: SPR, Biacore T200, 25 C; S100A4 captured via anti-His, antibody as analyte (0.78-200 nM), 1:1 fit. The protocol: Quantitative, kinetic analysis of the interactions between 14 humanized antibodies and 2 control antibodies with the human S100A4 dimer were performed using surface plasmon resonance (SPR).
The analysis was performed using a Biacore T200 instrument, at 25° C. analysis temperature, at a flow rate of 50 μl/min for quantitative kinetic interaction analyses.
For orientation: In SPR one partner is held on a chip, and binding of the other changes the refractive index at the surface.

Experiment [1] has as its target T2, human FcγRIIa-H (the high-affinity H131 variant) on Jurkat reporter cells (human, UniProt P12318 34-317).
T2 sequence (looked up): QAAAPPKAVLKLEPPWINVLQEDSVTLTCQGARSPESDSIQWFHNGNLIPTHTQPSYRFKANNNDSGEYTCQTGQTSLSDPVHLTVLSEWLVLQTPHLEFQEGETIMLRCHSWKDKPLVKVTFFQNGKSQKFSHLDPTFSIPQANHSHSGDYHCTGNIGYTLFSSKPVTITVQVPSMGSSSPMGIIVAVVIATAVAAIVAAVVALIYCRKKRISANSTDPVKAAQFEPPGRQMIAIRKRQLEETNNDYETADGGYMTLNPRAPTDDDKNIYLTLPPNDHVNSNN
Put plainly: cell-based or functional assay.

For experiment [2], the target named is A6 (lane under "Human S100 Proteins") (Homo sapiens, UniProt P06703). Put plainly: Western blot on human S100 proteins. On the technique in general: A western blot detects proteins with antibodies after separation by electrophoresis.
Experiment [3] addresses T3, A8 (lane under "Human S100 Proteins").
T3 construct: also called human S100A8
T3 chain: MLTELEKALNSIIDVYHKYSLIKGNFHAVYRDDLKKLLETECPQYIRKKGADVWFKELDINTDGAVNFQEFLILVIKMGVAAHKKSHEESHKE
Kind of experiment: Western blot on human S100 proteins.

The target of another experiment is T4, human S100A4 protein (human, UniProt P26447 1-101).
T4 construct: also called S100A4 (human)
T4 sequence (P26447 whole entry, one chain of several): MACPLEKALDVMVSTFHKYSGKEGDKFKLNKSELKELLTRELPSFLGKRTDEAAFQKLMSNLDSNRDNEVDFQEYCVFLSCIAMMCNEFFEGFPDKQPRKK
Put plainly: Western blot.

Changes are numbered by the printed parent chain.

The term Kd denotes the free concentration of one partner at which half of the binding sites on the other are occupied at equilibrium, for simple one-to-one binding. A word on the koff: it is the rate constant with which the complex falls apart. A higher koff goes with fast dissociation. A word on the kon: it is the second-order rate constant of association.

T1 sequence (P26447 whole entry, one chain of several): as above

B1: 6B12, mouse monoclonal IgG1 anti-S100A4 antibody (antibody, V domains shown)
VH: DVQLQESGPGLVKPSQSLSLTCSVTGDSFTNDYYWNWIRQFPGSKLEWMGHIGYGGNINYNPSLKNRISITRDTSKNQFFLRLTSVTTEDTATYYCTRESFYDGYPFDYWGQGTLVTVSA
VL: DIQMTQTTSSLSASLGDRVTISCRASQDIRNYLNWYQQRPGGTLKLLIYYTSRLHSGVPSRFSGSGSGTDYSLTISNLEQEDIATYFCQQGNSLPRTFGGGTKLEIK
notes: Mouse IgG1; also called 6B12 mIgG1; 6B12 IgG1
In the experiment with human S100A4 dimer, B1 registered a Kd of 1.65 nM, a koff of 0.000206 s⁻¹ and a kon of 124000 M⁻¹ s⁻¹. Moreover, in experiment [1], the “FcγRIIa-H ADCP reporter; fold higher activation than AX-202 hIgG4, immune complex with S100A4 dimer” value worked out at 3.23 fold and the “FcγRIIa-H ADCP reporter; fold higher activation than AX-202 hIgG4, immune complex with S100A4 multimer” value worked out at 2.87 fold.

B2: VH0 VL0: the VH and VL regions of 6B12 comprised in a humanized IgG4 isotype framework (antibody, V domains shown)
VH: B1 VH
VL: B1 VL
In the experiment with human S100A4 dimer, B2 returned a Kd of 0.958 nM, a koff of 0.000219 s⁻¹ and a kon of 229000 M⁻¹ s⁻¹.

B3: VH0 VL3 (antibody, V domains shown)
VH: B1 VH
VL: DIQMTQSPSSLSASVGDRVTITCRASQDIRNYLNWYQQKPGKAPKLLLYYTSRLHSGVPSRFSGSGSGTDYTLTISSLQPEDFATYYCQQGNSLPRTFGGGTKVEIK
In the experiment with human S100A4 dimer, B3 displayed a Kd of 1.46 nM, a koff of 0.000279 s⁻¹ and a kon of 191000 M⁻¹ s⁻¹.

B4: VH1 VL0 (antibody, V domains shown)
VH: QVQLQESGPGLVKPSQTLSLTCTVSGDSFTNDYYWNWIRQHPGKGLEWIGHIGYGGNINYNPSLKNRLSMSRDTSKNQFSLKLSSVTAADTAVYYCTRESFYDGYPFDYWGQGTLVTVSS
VL: B1 VL
In the experiment with human S100A4 dimer, B4 gave a Kd of 1.15 nM, a koff of 0.000361 s⁻¹ and a kon of 313000 M⁻¹ s⁻¹.

B5: AX-202, a humanized IgG4 monoclonal anti-S100A4 antibody (antibody)
heavy: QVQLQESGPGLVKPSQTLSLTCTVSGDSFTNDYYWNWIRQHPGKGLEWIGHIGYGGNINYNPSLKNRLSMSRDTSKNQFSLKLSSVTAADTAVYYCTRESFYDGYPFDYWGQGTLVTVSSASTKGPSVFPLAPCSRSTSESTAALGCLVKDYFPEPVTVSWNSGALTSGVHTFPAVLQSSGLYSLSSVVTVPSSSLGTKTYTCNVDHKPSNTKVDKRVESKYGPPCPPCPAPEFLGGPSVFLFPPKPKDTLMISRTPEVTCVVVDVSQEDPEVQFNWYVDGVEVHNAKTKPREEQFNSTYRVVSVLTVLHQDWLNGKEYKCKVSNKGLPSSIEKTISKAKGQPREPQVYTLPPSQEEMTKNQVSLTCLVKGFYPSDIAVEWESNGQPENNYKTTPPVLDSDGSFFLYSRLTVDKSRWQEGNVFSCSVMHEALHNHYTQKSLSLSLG
light: DIQMTQSPSSLSASVGDRVTITCRASQDIRNYLNWYQQKPGKALKLLLYYTSRLHSGVPSRFSGSGSGTDYTLTISSLQPEDFATYYCQQGNSLPRTFGGGTKVEIKRTVAAPSVFIFPPSDEQLKSGTASVVCLLNNFYPREAKVQWKVDNALQSGNSQESVTEQDSKDSTYSLSSTLTLSKADYEKHKVYACEVTHQGLSSPVTKSFNRGEC
Take B5: in experiment [1], the “FcγRIIa-H ADCP reporter; potency to induce FcγR activation against the same antibody with a human IgG1 scaffold” value is about 3 fold lower.

B6: VH1_40Phe:VL3_Leu44 (antibody, V domains shown)
VH: B4 VH with H41F
VL: B3 VL with P44L
notes: also called Phe40/Leu44; VH1_H40Phe VL3_L44Leu
Consider B6, for which the results for the binding result (in experiment [2]; in experiment [3]; with human S100A4 protein) were “no binding”, “no binding” and “binds”, respectively.

B7: VH1 VL3 (antibody, V domains shown)
VH: B4 VH
VL: B3 VL
notes: Humanized antibody
In the case of B7, in the experiment with human S100A4 dimer, the Kd is 3.47 nM, the koff came out at 0.000674 s⁻¹ and the kon worked out at 194000 M⁻¹ s⁻¹.

B8: VH1 VL3_L43Thr (antibody, V domains shown)
VH: B4 VH
VL: B3 VL with A43T
In the experiment with human S100A4 dimer, B8 had a Kd of 4.72 nM, a koff of 0.000882 s⁻¹ and a kon of 187000 M⁻¹ s⁻¹.

B9: VH1_H43Ser VL3 (antibody, V domains shown)
VH: B4 VH with K44S
VL: B3 VL
With B9, in the experiment with human S100A4 dimer, binding was characterised by a dissociation constant (Kd) of 3.21 nM, the koff came out at 0.000679 s⁻¹ and the kon was 211000 M⁻¹ s⁻¹.

B10: VH1 VL3_L42Gly (antibody, V domains shown)
VH: B4 VH
VL: B3 VL with K42G
In the experiment with human S100A4 dimer, B10 returned a Kd of 3 nM, a koff of 0.00064 s⁻¹ and a kon of 213000 M⁻¹ s⁻¹.

B11: VH1_H40Phe VL3 (antibody, V domains shown)
VH: B4 VH with H41F
VL: B3 VL
notes: Humanized antibody; also called VH1_40Phe:VL3; Phe40
Consider B11, for which the binding result in experiment [2] is on record as “no binding”. In experiment [3], the binding result is given as “no binding”. In the experiment with human S100A4 dimer, this molecule came in with a Kd of 2.65 nM, a koff of 0.000576 s⁻¹ and a kon of 217000 M⁻¹ s⁻¹.

B12: VH1_H43Ser + H44Lys VL3 (antibody, V domains shown)
VH: B4 VH with K44S, G45K
VL: B3 VL
For B12, in the experiment with human S100A4 dimer, the Kd came to 2.84 nM, the koff amounted to 0.000596 s⁻¹ and the kon was 210000 M⁻¹ s⁻¹.

B13: VH1_H43Ser VL3_L44Leu (antibody, V domains shown)
VH: B4 VH with K44S
VL: B3 VL with P44L
In the experiment with human S100A4 dimer, B13 gave a Kd of 2.38 nM, a koff of 0.000512 s⁻¹ and a kon of 215000 M⁻¹ s⁻¹.

B14: VH1 VL3_L44Leu (antibody, V domains shown)
VH: B4 VH
VL: B3 VL with P44L
notes: Humanized antibody; also called VH1:VL3_Leu44; Leu44
Take B14: the binding result in experiment [2] is given as “no binding”. In experiment [3], the binding result was “no binding”. In the experiment with human S100A4 dimer, this molecule gave a Kd of 2.25 nM, a koff of 0.000537 s⁻¹ and a kon of 239000 M⁻¹ s⁻¹.

B15: VH1_H40Phe + H44Lys VL3 (antibody, V domains shown)
VH: B4 VH with H41F, G45K
VL: B3 VL
In the experiment with human S100A4 dimer, B15 had a Kd of 2.43 nM, a koff of 0.00056 s⁻¹ and a kon of 231000 M⁻¹ s⁻¹.

B16: VH1_H43Ser + H44Lys VL3_L44Leu (antibody, V domains shown)
VH: B4 VH with K44S, G45K
VL: B3 VL with P44L
In the experiment with human S100A4 dimer, B16 returned a Kd of 2.15 nM, a koff of 0.000507 s⁻¹ and a kon of 236000 M⁻¹ s⁻¹.

B17: VH1_H44Lys VL3 (antibody, V domains shown)
VH: B4 VH with G45K
VL: B3 VL
In the experiment with human S100A4 dimer, B17 yielded a Kd of 2.77 nM, a koff of 0.000592 s⁻¹ and a kon of 213000 M⁻¹ s⁻¹.

B18: VH1 VL3_L42Gly+L44Leu (antibody, V domains shown)
VH: B4 VH
VL: B3 VL with K42G, P44L
Turning to B18, in the experiment with human S100A4 dimer, binding was put at a Kd of 1.99 nM, the koff is 0.000523 s⁻¹ and the kon is 263000 M⁻¹ s⁻¹.
